# Data published in the nanobody polyreactivity screen of Harvey et al. (2022).
# Test: yeast display, Sf9 membrane polyspecificity reagent, FACS + sequencing; frameworks hold sequencing errors
# Procedure, shortened: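 In a synthetic yeast display library (Saccharomyces cerevisiae BJ5465), nanobody expression was induced with galactose for 36–48 hours. FACS gates were set low and high (top ~1%) using anti-HA fluorescence for expression and streptavidin fluorescence for binding of the Sf9 membrane reagent. Each polyreactivity label is drawn from the gate of origin.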
row,Sequence,polyreactivity (PSR sort gate)
1,QVQHVESGGGLVQAGGSLRLSCAASGFIFWYYTMGWYRQAPGKVRELLATISGGGSTYYADSVKGRFTISRDNAKNTVYLQMNSLKPEDTAVYYCNAVIRTRRVGYGDGVDYWGQGTQVTVSS,high polyreactivity
2,QVQHVESGGGLVQAGGSLRLSCAASGFTFAYYAKGWYRQAPGKERELVARISSGGSTYYADSVKGRFTISRDNAKNTVYLQMNSLKPEDTAVYYCAARSYYISPWRFDYWGQGTQVTVSS,high polyreactivity
3,QVQHVESGGGLVQAGGSLRLSCAASGFTFSYNAMGWNRQAPGKERELVAAISATGDGNTYYADSVKGRFTISRDNAKNTVYLQMNSLNPEDTAVYFCNRLPQYALPYRHNGYWGQGTQVTVSS,low polyreactivity
4,QVQHVESGGGLVQAGGSLRLSCAASGFTFWYYDMGWSRQAPGKERELVAAITNGGRTYYADSVKGRFTISRDNAKNTVYLQMNSLKPEDTAVYYCAAGRWRSGRAEDYWGQGTQVTVSS,high polyreactivity
5,QVQHVESGGGLVQAGGSLRLSCAASGFTIPNYAMGLYRQAPGKERELVAAITSGGGRTNYADSVKGRFTISRDNAKNTVDLQMNSLKPEDTAVYDCAKTRLRGSEFGFWGQGTQVTVSS,low polyreactivity
6,QVQHVESGGGLVQAGGSLRLSCAASGGIFERKDMGWYRQAHGKERQLVAGISSVGSTNYADSVKWRFTISRDNAKNTVYLQMNSLKPEDTAVYYCAAKRVRALYVGSEGGYWGQGTQVTVSS,low polyreactivity
7,QVQHVESGGGLVQAGGSLRLSCAASGGIYYQNAMGWYRQAPGKERELVAAISGRGGRTYYADSVKGRFTISRDNAKNTVYLQMNSLKPEDTAVYYCNADQATFSLYHEMDYWGQGTQVTVSS,low polyreactivity
8,QVQHVESGGGLVQAGGSLRLSCAASGGTFADYTMGWYRQAPGKERELVAAITSSGGSTYYADSVKGRFTISRDNAKNTVYLQMNSLKTEDTAVYYCAALGYVAMGYWGQGTQVTVSS,high polyreactivity
9,QVQHVESGGGLVQAGGSLRLSCAASGIIFPYNAMGWYRQAPGKERELVAAITGGGSTYYADSVKGRFTISRDNAKNTVYLQMNSLKPEDTAVYYCAADRSGPGYDYWGQGTQVTVSS,low polyreactivity
10,QVQHVESGGGLVQAGGSLRLSCAASGIIFRDYGMGWYRQAPGKEREFVATITYSGGGTYYADSVKGRFTISRDNAKNTVYLQMNSLKPEDTAVYYCAAYPFYYDLAYDYWGQGTQVTVSS,low polyreactivity
11,QVQHVESGGGLVQAGGSLRLSCAASGITFWSNAKGWYRQAPGKEREMVAAITSSGGSTYYADSVKGRFTISRDNAKNTVYLHMNSLKPEDTAVYYCAAPISSSAGWDSYDYWGQGTQVTVSS,low polyreactivity
12,QVQHVESGGGLVQAGGSLRLSCAASGLNFTRYVMGWYRQAPGKERELVAVISSGGSTYYADSVKGRFTISRDNAKNTVYLQMNSLKPEDTAVYYCAAYLRYSQVTYDYWGQGTQVTVSS,high polyreactivity
13,QVQHVESGGGLVQAGGSLRLSCAASGLTSVINAMGWYRQAPGKERELVAAMTNGGSTSYADSVKGRFTISRDNAKNPVYLQMNSLKPEDTAVYYWAADIVSSTDYPFDYWGQGTQVTVSS,low polyreactivity
14,QVQHVESGGGLVQAGGSLRLSCAASGNIFGLNAMGWYRQAPGKERELVAAISKSGGSTFYADSVKGRFTISRDNAKNTVYLQMNSLKPEDTAVYYCAADHRYHWAYPRGYYYWGQGTQVTVSS,high polyreactivity
15,QVQHVESGGGLVQAGGSLRLSCAASGNIIPYNAKAWYRQAPGKERELVATISSGGSTYYADSVKGRFTISRDNAKNTVYLQMNSLKPEDTAVYYCAARGRYPYLYGYWGQGTQVTVSS,high polyreactivity
16,QVQHVESGGGLVQAGGSLRLSCAASGRIFAYNAMGWYRQAPGKERELVADISSGGNTYYADSVKGRFTISRDNAKNTVYLQMNSLKPEDTAVYYCAADIALYTHYHRIFDYWGQGTQVTVSS,low polyreactivity
17,QVQHVESGGGLVQAGGSLRLSCAASGRIFPAYAMGWYRQATGKERELVATISSTGSRSYYADSVKGRFTISRDNAKNTVYLQMNSLKPEDTAVYYCAARQRYKVGGLYGVDYWGQGTQVTVSS,high polyreactivity
18,QVQHVESGGGLVQAGGSLRLSCAASGRIFSGYAMGWYRQAPGKERELVAAINRSGGSTYYADSVKGRFTISRDNAKNTVYLQMNSLKPDDTAVYYCAADKSDVYGYFRQSESYGYWGQGTQVTVSS,low polyreactivity
19,QVQHVESGGGLVQAGGSLRLSCAASGRIFTTYAMGWYIQAPGKERELVAAISRSGGSTYYADSVKGRFTISRDNAKNTVYLQMNSLKPEDTAVYYCAAVPTSNSFRSSFYYWGQGTQVTVSS,high polyreactivity
20,QVQHVESGGGLVQAGGSLRLSCAASGRIFYFNAMGWYRPAPGKERELVAAISSSSGSTNYADSVQGRFTISRDNAKNTVYLQMNSLKPEATAVYYCAADGYYQDYTFEYDYWGQGTQVTVSS,low polyreactivity
21,QVQHVESGGGLVQAGGSLRLSCAASGRIFYNYAMGWYRQAPGKEREFVADIDFNGGSTYYADSGKGRFTISRDNAKTTVYLQMNSLKPDDTAVYYSAAEQDDARYNAWWIGPMYSWGQGTQVTVSS,low polyreactivity
22,QVQHVESGGGLVQAGGSLRLSCAASGRIFYSNVMGWYRQAPGKERELVAAISGRTGGTYYADSEKGRFTISRDNAKNTVYLQMNSMKPEDTAVYFCAARVIYYYGSGPYDYWGQGTQVTVSS,low polyreactivity

row,Sequence,polyreactivity (PSR sort gate)
1,QVQHVESGGGLVQAGGSLRLSCAASGRIISYNAMGWYRQAPGKERELVAAISWGGGSTYYADSVKGRFTISRDNAKNTVYLQMNSLKPEDTAVYYCAKGWYRIKRNDYWGQGTQVTVSS,low polyreactivity
2,QVQHVESGGGLVQAGGSLRLSCAASGRTFDWNAMGWYRQAPGKERELVAAITYSGGGTYYADSVKGRFTISRDNAKNTVYLQMNSLKPEETAVYYCAAGYPGTWSYYYWGQGTQVTVSS,low polyreactivity
3,QVQHVESGGGLVQAGGSLRLSCAASGRTFHQNAMGWYRQAPGKERELVATITAGSGSTYYADSVKGRFTISGDNAKNTVYLQMNSVKPEDTAVYFWNAKWTLYQSDYWYYIYDYCGQGTQVTVSS,low polyreactivity
4,QVQHVESGGGLVQAGGSLRLSCAASGRTFKYYAMGWDRQAPGKERELVAAITRRGTSTYYADSVKGRFTISRDNAKNTVYLQMNSLKPEDTAVYYCNKDSPVTYSSRYGYWGQGTQVTVSS,high polyreactivity
5,QVQHVESGGGLVQAGGSLRLSCAASGRTFNLKAMGWYRQAPGKERELVAAISWSGGSTYYADSVKGRFTISRDNAKNTVYLQMNSLKPEDTAVYYCAAETYAYLFHTYDYWGQGTQVTVSS,low polyreactivity
6,QVQHVESGGGLVQAGGSLRLSCAASGRTFPLNAMGWYRQAPGKERELVYAITWSGGRTYYADSVKGRFTISRDYAKNTVYLQMNSLKPEDTAVYYCAAKRTTWKIQSGYDYWGQGTQVTVSS,low polyreactivity
7,QVQHVESGGGLVQAGGSLRLSCAASGRTFRDYVMGWYRQAPGKETALVAAISTRGASTYYADSVKGRFTISRDNANNTVYLQMNRLKPEDTAVYYCAARSTRRGNEYDYWGQRTQVTVSS,high polyreactivity
8,QVQHVESGGGLVQAGGSLRLSCAASGRTFRRNVMGWYRQAPGKERELVAAISSGANTNYADSVKGRFTISRDNAKNTVYLQMNSLKPEDTAVYYCNARWQEPLKYDYWGQGTQVTVSS,low polyreactivity
9,QVQHVESGGGLVQAGGSLRLSCAASGRTFTHYAMGWYRQAPGKERELVAVITTGGSTYYADSVKGRFTISRDNAKNTVYLQMNSLKPEDTAVYYCAATALSGLGYWGQGTQVTVSS,low polyreactivity
10,QVQHVESGGGLVQAGGSLRLSCAASGRTLLGNAMGRYRQAPGKEREFVAAISYRGGSTYYADSVKGRFTISRDNAKNTVYLQMNSLKPEDTAVYYCAASSFKYSRFDYWGQGTQVTVSS,low polyreactivity
11,QVQHVESGGGLVQAGGSLRLSCAASGRTLRYYAMGGYRRAPGKERELVAAITKSGGSPYYADSVKGRFTISRDNAKNTVYLQMYSLKPEDTAVYYCNKVTYSRAQYIGGAGYYWGQGTQVTVSS,high polyreactivity
12,QVQHVESGGGLVQAGGSLRLSCAASGSIFAGYAMGWYRQAPGKEWELVAAISRRGGRKYYADSVKGRFTISRDNAKNTVYLQMNSLKPEDTAVYYCAVTTPRGPYGYDYWGQGTQVTVSS,high polyreactivity
13,QVQHVESGGGLVQAGGSLRLSCAASGSIFAGYANGWYRKAPGKERELVARITDRGGSTDYADSVKGRYTISRDNAKNTVYLQMNSLKPEDTAVYSCAKRGDRYEKRPRDYWGQGTQVTVSS,low polyreactivity
14,QVQHVESGGGLVQAGGSLRLSCAASGSIFAYNAMGCYRQARGKERELVAAITSSGGSTYYADSVKGRFTISRDNAKNTVYLPMNSLKPEDTAVYYCNAYGYFKKYNYWGQGTQVTVSS,high polyreactivity
15,QVQHVESGGGLVQAGGSLRLSCAASGSIFGTYAMGWYRQAPGKERELVAAIRWSSGSTYYADSVKGRFTISRDNAKYTVYLLMNSLKPEDTAVYYCNAEYVYYWLGATFGYWGQGTQVTVSS,high polyreactivity
16,QVQHVESGGGLVQAGGSLRLSCAASGSIFIANAMGWYRQAPGKERELVAVINWGDGSTYADSVKGRFTISRDNAKNTVYLQMNSLKPEDTAVYYCNAPDEVNDVRYDYWGQGTQVTVSS,low polyreactivity
17,QVQHVESGGGLVQAGGSLRLSCAASGSIFKPYAMGWYRLAPGKEREFVAAITSSDGTTYYADSVKGRFTISRDNAKNTVYVQMNSLKPEDTAVYYCNAEYYAKYVPFTKYYYWGQGTQVTVSS,low polyreactivity
18,QVQHVESGGGLVQAGGSLRLSCAASGSIFNYYDMGWYRQAPGKEREFVARITIGGSSTNYADSVKGRFTISRDNAKNTVYLQMNSLTPEDTAVYYCAAAQYGIFFSQMDYWGQGTQVTVSS,low polyreactivity
19,QVQHVESGGGLVQAGGSLRLSCAASGSIFRIYAMGWYRQAPGKERELVAAISVSTGSRTYYADSVKGRFTISRDNAKNTVYLQMNSLKPEDTAVYYCNAESYYDYNYWGQGTQVTVSS,low polyreactivity
20,QVQHVESGGGLVQAGGSLRLSCAASGSIFRKNAMGWYRQAPGKERELVAAISSGGGGTYYADSVKGRFTISRDNAKNTVYLQMNSLKPEDTAVFYCNKREGKGGNTKYDYWGQGTQVTVSS,low polyreactivity
21,QVQHVESGGGLVQAGGSLRLSCAASGSIFRYYTMGWYRQAPGKERELVAAISYSGGRTYYADSVKGRFTISRDNAKNTVYLQMNSLKPEDTAVYYCAAKLLQLRGRGYEYWGQGTQVTVSS,high polyreactivity
